Reference: publication doi:10.1101/2023.07.25.550441

Key:
Assay in all cases: SPR
[1] = target: Asgard UEV (the UEV of UEV-Vps23 and UEV-Vps28), as tested against Asgard ubiquitin
[2] = target: Helarchaeia full-length RING E3 (Helarchaeota)
[3] = target: Helarchaeia RING E3 (N-loopΔ), truncated E3 that lacks the N-loop (residues 1-19) (Helarchaeota)

Kd [1]	Kd [2]	Kd [3]	Substance
0.674 to 7.15 µM			Asgard ubiquitin, as tested against Asgard UEV
	257 µM	8.14 mM	Helarchaeia UEV (residues 1-132) of UEV-Vps23 (domain or fragment)
